Data taken from US20230295310A1 (ABCELLERA BIOLOGICS, published 2023).
Changes are numbered by the printed parent chain.

B1: GOMP001_bsAb_045 (bispecific antibody, human IgG1, kappa, L234A L235A)
heavy 1: QVQLVQSGAEVKKPGASVKVSCKASGYTFTSHWMHWVRKAPGQGLEWIGEFNPSNGRTNYNEEFKSKATMTVDTSTNTAYMELSSLRSEDTAVYYCASRDYDYDGRYFDYWGQGTLVTVSSASTKGPSVFPLAPSSKSTSGGTAALGCLVADYFPEPVTVSWNSGALTSGVHTFPAVLQSSGLYSLSSVVTVPSSSLGTQTYICNVNHKPSNTKVDEKVEPKSCDKTHTCPPCPAPEAAGGPSVFLFPPKPKDTLMISRTPEVTCVVVDVSHEDPEVKFNWYVDGVEVHNAKTKPREEQYNSTYRVVSVLTVLHQDWLNGKEYKCKVSNKALPAPIEKTISKAKGQPREPQVYTLPPSREEMTDNQVSLTCLVKGFYPSDIAVEWESNGQPENNYKTTPPVLMSDGSFFLASKLTVDKSRWQQGNVFSCSVMHEALHNHYTQKSLSLSPG
light 1: RIQMTQSPSSLSASVGDRVTITCSASSSVTYMYWYQDKPGKAPKLLIYDTSNLASGVPSRFSGSGSGTDYTFTISSLQPEDIATYYCQQWSSHIFTFGQGTKVEIKRTVAAPSVFIFPPSDKQLKSGTARVVCLLNNFYPREAKVQWKVDNALQSGNSQESVTEQDSKDSTYSLSSTLTLSKADYEKHKVYACEVTHQGLSSPVTKSFNRGEC
heavy 2: EVQLVESGGGLVQPGRSLRLSCATSGFTFADYTMHWVRYAPGKGLEWVSGISWNSGSIDYADRVKGRFTISRDNAKKSLYLQMNSLRAEDTALYFCAKDSSGYGHYYFYYLDVWGRGTTVTVSSASTKGPSVFPLAPSSKSTSGGTAALGCLVKDYFPEPVTVSWNSGALTSGVHTFPAVLQSSGLYSLSSVVTVPSSSLGTQTYICNVNHKPSNTKVDKKVEPKSCDKTHTCPPCPAPEAAGGPSVFLFPPKPKDTLMISRTPEVTCVVVDVSHEDPEVKFNWYVDGVEVHNAKTKPREEQYNSTYRVVSVLTVLHQDWLNGKEYKCKVSNKALPAPIEKTISKAKGQPRRPRVYTLPPSREEMTKNQVSLVCLVKGFYPSDIAVEWESNGQPENNYKTTPPVLDSDGSFFLYSVLTVDKSRWQQGNVFSCSVMHEALHNHYTQKSLSLSPG
light 2: not shown
B2: GOMP001_bsAb_051 (bispecific antibody, human IgG1, kappa, L234A L235A)
heavy 1: B1 heavy 1
light 1: B1 light 1
heavy 2: QVQLVQSGAEVKKPGASVKVSCKASGYTFTSYYIHWVRYAPGQGLDWMGIINPSGGITGYAQKLQGRVTMTRDTSTTTVYMELSSLRSDDTAVYYCARGVRGNYYYYYMDVWGRGTTVTVSSASTKGPSVFPLAPSSKSTSGGTAALGCLVKDYFPEPVTVSWNSGALTSGVHTFPAVLQSSGLYSLSSVVTVPSSSLGTQTYICNVNHKPSNTKVDKKVEPKSCDKTHTCPPCPAPEAAGGPSVFLFPPKPKDTLMISRTPEVTCVVVDVSHEDPEVKFNWYVDGVEVHNAKTKPREEQYNSTYRVVSVLTVLHQDWLNGKEYKCKVSNKALPAPIEKTISKAKGQPRRPRVYTLPPSREEMTKNQVSLVCLVKGFYPSDIAVEWESNGQPENNYKTTPPVLDSDGSFFLYSVLTVDKSRWQQGNVFSCSVMHEALHNHYTQKSLSLSPG
light 2: EIVLTQSPDFQSVTPKEKVTITCRASQSIGSKLHWYQRKPDDSPKLLIKYASQSFSGVPSRFSGSGSGTDFNLTINSLEAEDAATFYCHQSSGLPYTFGQGTKLEIKRTVAAPSVFIFPPSDEQLKSGTASVVCLLNNFYPREAKVQWKVDNALQSGNSQESVTEQDSKDSTYSLSSTLTLSKADYEKHKVYACEVTHQGLSSPVTKSFNRGEC
B3: GOMP001_bsAb_050 (bispecific antibody, human IgG1, kappa, L234A L235A)
heavy 1: QVQLVESGGGVVQPGRSLRLSCAASGFTFSTYGMHWVRKAPGKGLEWVAVIWYDGSHKYYADEVKGRFTISRDNSKKTLYLQMNSLRAEDTGIYYCARTGISGNMSYFYFDHWGQGILVTVSSASTKGPSVFPLAPSSKSTSGGTAALGCLVADYFPEPVTVSWNSGALTSGVHTFPAVLQSSGLYSLSSVVTVPSSSLGTQTYICNVNHKPSNTKVDEKVEPKSCDKTHTCPPCPAPEAAGGPSVFLFPPKPKDTLMISRTPEVTCVVVDVSHEDPEVKFNWYVDGVEVHNAKTKPREEQYNSTYRVVSVLTVLHQDWLNGKEYKCKVSNKALPAPIEKTISKAKGQPREPQVYTLPPSREEMTDNQVSLTCLVKGFYPSDIAVEWESNGQPENNYKTTPPVLMSDGSFFLASKLTVDKSRWQQGNVFSCSVMHEALHNHYTQKSLSLSPG
light 1: not shown
heavy 2: QVQLVQSGAEVKKPGASVKVSCKASGYTFTSHWMHWVRYAPGQGLEWIGEFNPSNGRTNYNEKFKSKATMTVDTSTNTAYMELSSLRSEDTAVYYCASRDYDYDGRYFDYWGRGTLVTVSSASTKGPSVFPLAPSSKSTSGGTAALGCLVKDYFPEPVTVSWNSGALTSGVHTFPAVLQSSGLYSLSSVVTVPSSSLGTQTYICNVNHKPSNTKVDKKVEPKSCDKTHTCPPCPAPEAAGGPSVFLFPPKPKDTLMISRTPEVTCVVVDVSHEDPEVKFNWYVDGVEVHNAKTKPREEQYNSTYRVVSVLTVLHQDWLNGKEYKCKVSNKALPAPIEKTISKAKGQPRRPRVYTLPPSREEMTKNQVSLVCLVKGFYPSDIAVEWESNGQPENNYKTTPPVLDSDGSFFLYSVLTVDKSRWQQGNVFSCSVMHEALHNHYTQKSLSLSPG
light 2: B1 light 1 with R1D, D37R, K41D, K122E, R130S
B4: GOMP001_bsAb_046 (bispecific antibody, human IgG1, kappa, L234A L235A)
heavy 1: EVQLVESGGGLVQPGRSLRLSCATSGFTFADYTMHWVRKAPGKGLEWVSGISWNSGSIDYADEVKGRFTISRDNAKKSLYLQMNSLRAEDTALYFCAKDSSGYGHYYFYYLDVWGKGTTVTVSSASTKGPSVFPLAPSSKSTSGGTAALGCLVADYFPEPVTVSWNSGALTSGVHTFPAVLQSSGLYSLSSVVTVPSSSLGTQTYICNVNHKPSNTKVDEKVEPKSCDKTHTCPPCPAPEAAGGPSVFLFPPKPKDTLMISRTPEVTCVVVDVSHEDPEVKFNWYVDGVEVHNAKTKPREEQYNSTYRVVSVLTVLHQDWLNGKEYKCKVSNKALPAPIEKTISKAKGQPREPQVYTLPPSREEMTDNQVSLTCLVKGFYPSDIAVEWESNGQPENNYKTTPPVLMSDGSFFLASKLTVDKSRWQQGNVFSCSVMHEALHNHYTQKSLSLSPG
light 1: not shown
heavy 2: B3 heavy 2
light 2: B1 light 1 with R1D, D37R, K41D, K122E, R130S
B5: GOMP001_bsAb_055 (bispecific antibody, human IgG1, kappa, L234A L235A)
heavy 1: B1 heavy 1
light 1: B1 light 1
heavy 2: EVNLVESGGGLVQPGRSLRLSCAASGFTFDDYTMHWVRYVPGKGLEWVSNISWNSGSLGYADRVKGRFTISRDNAKDSLYLQMNSLRVEDTALYYCAKDSSGYGHYNSYYMDVWGRGTTVTVSSASTKGPSVFPLAPSSKSTSGGTAALGCLVKDYFPEPVTVSWNSGALTSGVHTFPAVLQSSGLYSLSSVVTVPSSSLGTQTYICNVNHKPSNTKVDKKVEPKSCDKTHTCPPCPAPEAAGGPSVFLFPPKPKDTLMISRTPEVTCVVVDVSHEDPEVKFNWYVDGVEVHNAKTKPREEQYNSTYRVVSVLTVLHQDWLNGKEYKCKVSNKALPAPIEKTISKAKGQPRRPRVYTLPPSREEMTKNQVSLVCLVKGFYPSDIAVEWESNGQPENNYKTTPPVLDSDGSFFLYSVLTVDKSRWQQGNVFSCSVMHEALHNHYTQKSLSLSPG
light 2: DIQMTQSPSSLSASVGDRVTITCRASQSIRNYLNWYQRKPGDAPKVLIYSASSLQSGVPSRFSGSGSGTDFTLTISSLQPEDFASFYCQQTYSTPITFGQGTRLEIKRTVAAPSVFIFPPSDEQLKSGTASVVCLLNNFYPREAKVQWKVDNALQSGNSQESVTEQDSKDSTYSLSSTLTLSKADYEKHKVYACEVTHQGLSSPVTKSFNRGEC
B6: GOMP001_bsAb_049 (bispecific antibody, human IgG1, kappa, L234A L235A)
heavy 1: B1 heavy 1
light 1: B1 light 1
heavy 2: QVQLVESGGGVVQPGRSLRLSCAASGFTFSTYGMHWVRYAPGKGLEWVAVIWYDGSHKYYADRVKGRFTISRDNSKKTLYLQMNSLRAEDTGIYYCARTGISGNMSYFYFDHWGRGILVTVSSASTKGPSVFPLAPSSKSTSGGTAALGCLVKDYFPEPVTVSWNSGALTSGVHTFPAVLQSSGLYSLSSVVTVPSSSLGTQTYICNVNHKPSNTKVDKKVEPKSCDKTHTCPPCPAPEAAGGPSVFLFPPKPKDTLMISRTPEVTCVVVDVSHEDPEVKFNWYVDGVEVHNAKTKPREEQYNSTYRVVSVLTVLHQDWLNGKEYKCKVSNKALPAPIEKTISKAKGQPRRPRVYTLPPSREEMTKNQVSLVCLVKGFYPSDIAVEWESNGQPENNYKTTPPVLDSDGSFFLYSVLTVDKSRWQQGNVFSCSVMHEALHNHYTQKSLSLSPG
light 2: not shown

Biological target: EGFR on HeLa cells (UniProt P00533 25-1210, limits assumed)
Assay: cell-based or functional assay

Binder | Max killing % [%] | X… HeLa EC50 [nM]
B1 | 69.5 | 0.179
B2 | 60.2 | –
B3 | 57 | –
B4 | 92.6 | 0.0264
B5 | 78 | 0.182
B6 | 55.9 | –
